Assay results reported in the supplement of paper PMC10567573.

B1: TEKT4 (parent)
chain: SEVEELNMSLTALREKLLEAEQSL
B2: ZNF8 (parent)
chain: SLGRHKRTHTGEKPYTCSVCGKSF

Variants of: B1
Experiment: protein stability index of a GFP-peptide fusion (GPS, HEK-293T) (PSI 1-6); higher = more stable
Details: c terminus: a fixed tail appended
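Also: lentivirally expressed fusions sorted by FACS into six bins by GFP to DsRed ratio, PSI derived from sequencing read proportions per bin multiplied by bin number.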

Protein stability index of substitutions, site by site:
E4: T 2.59, G 2.89, M 2.07, R 2.02, P 2.73, D 2.63, C 2.29, I 2.59, A 1.86, V 2.58, H 2.06, Y 1.99, Q 2.32, N 3.12, L 2.26, S 2.71, W 1.68, F 2.34, K 2.24
E2: V 2.45, K 2.19, T 2.41, Q 2.69, H 2.3, S 2.34, R 3.06, A 2.84, C 2.66, F 1.76, Y 1.68, M 2.74, I 2.42, L 2.72, P 3.14, N 2.55, G 2.31, W 1.98, D 3.06
S1: D 3.64, N 2.2, G 3.25, I 2.37, M 2.27, Q 3.52, F 2.31, W 2.26, Y 2.31, A 3.43, L 2.96, E 3.28, R 2.19, P 2.94, V 2.76, K 2.23, T 2.6, C 2.63, H 3.19
L6: R 2.87, S 3.71, Q 3.51, G 3.95, W 2.95, Y 2.6, C 3.71, V 3.58, P 3.99, M 3.47, H 3.31, E 4.33, N 3.89, I 2.76, A 3.81, K 3.75, D 4.41, T 3.02, F 3
E5: I 1.95, M 2.22, R 2.35, Q 2.72, N 2.63, P 2.63, D 2.63, L 2.43, V 2.64, G 2.73, K 2.6, Y 2.03, A 2.37, T 2.54, W 1.79, C 2.31, F 2.76, S 3.06, H 2.72
V3: W 2.4, T 2.99, N 2.57, S 3.29, Q 3.4, D 3.64, R 2.83, L 3.51, K 2.45, Y 2.95, G 3.67, I 3.16, H 3.29, M 2.63, F 2.83, A 3.61, E 3.98, P 3.47, C 3.39
N7: F 1.89, G 2.94, E 2.56, I 3.09, C 2.48, D 3.24, A 2.35, H 2.43

Variants of: B2
Experiment: as above
Details: c terminus: a fixed tail appended

Protein stability index, by site and new letter:
T16: S 2.51, V 3.01, N 2.97, E 2.98, A 2.95, W 2.33, C 2.31, M 2.85, Y 2.61, P 2.19, F 3.04, L 2.25, R 2.89, H 2.77, K 2.68, Q 3.14, I 2.75, D 2.81
C17: Y 2.77, R 2.75, L 2.33, N 3.78, I 2.38, P 3.17, E 3.77, T 3.19, W 2.81, M 2.96, K 3.65, Q 3.76, D 4.3, V 3.58, A 3.81, S 3.3, H 3.32, F 2.4, G 3.49
C20: S 4, T 3.44, P 3.36, L 2.45, I 2.94, K 3.23, E 3.78, H 2.79, A 3.05, F 2.47, G 3.18, W 2.4, D 3.99, M 3.36, Q 3.42, N 3.51, R 2.98, V 3.13, Y 2.94
G21: K 3.36, V 2.17, L 1.9, C 2, W 1.88, Q 2.59, Y 1.92, D 3.11, N 2.98, I 2.01, S 2.94, P 3.12, A 2.35, M 2.71, T 3.14, H 2.78, F 2.5, R 3.03, E 2.1
Y15: H 2.34, N 2.33, M 2.52, G 2.45, A 2.58, S 2.9, I 2.59, D 2.46, P 2.29, V 2.44, L 2.44, K 2.72, F 2.36, R 2.61, W 2.63, E 2.89, Q 2.33, T 2.3, C 3.79
S23: P 2.39, N 2.9, K 3.3, E 3.03, W 2.12, Q 2.25, I 2.8, Y 2.79, M 2.18, L 2.69, C 2.48, H 3.12, F 2.38, A 2.5, D 3.3, G 2.94, V 1.95, T 3.32, R 3.2
V19: Y 2.64, K 2.93, W 1.88, I 2.79, A 2.36, D 3.5, F 2.67, T 2.75, Q 3.45, P 3.06, L 2.29, N 3.47, M 2.7, G 2.7, H 3.06, R 3.15, S 3.04, E 2.42, C 3.68
F24: C 4.13, A 3.1, I 2.92, P 3.5, R 2.92, V 3.27, N 3.27, L 3.02, Y 2.45, H 4.04, W 2.93, D 3.83, K 3.62, S 3.44, M 2.85, T 2.24, Q 2.69
K22: V 2.48, G 2.19, S 2.34, H 3.12, N 2.87, I 2.05, D 3.01, Y 3.41, Q 2.47, L 2.36, A 2.82, C 2.54, F 2.54, E 3.66, T 3.37, R 3.09, P 3.29, M 2.07
P14: R 2.63, E 2.8, V 3.18, H 2.89, K 2.83, F 3.14, N 3.21, A 2.23, I 3.47, Y 3, L 3.73, S 3.3, G 2.44, T 3.77, M 2.72, W 3.82, Q 3, D 3.11, C 2.73
K13: T 2.92, Q 2.71, W 3.06, R 2.39, S 2.94, Y 2.31, P 2.71
S18: G 2.83, P 3, C 2.63, E 3.38, T 2.68, H 2.26, L 2.44, F 2.08, R 2.54, A 2.94, Q 3.16, D 2.76, N 2.02, M 2.58, K 2.98, Y 2.71, V 2.83, I 2.34, W 2.84
